Test results from patent US20090098074A1.

Legend:
[1] = molecular target: human hair (hair keratin) (human); test: quantitative hair-binding test; loss of A405 after 10% SDS relative to untreated hair
[2] = molecular target: human skin (skin keratin) (human); test: quantitative skin-binding test; loss of A405 after 10% SDS relative to untreated skin
[3] = molecular target: human skin (skin keratin) (human); test: quantitative skin-binding test, after washing with 10% strength SDS; value standardized to the surface
[4] = molecular target: human hair (hair keratin) (human); test: quantitative hair-binding test, after washing with 10% strength SDS; value standardized to the surface
[5] = molecular target: human hair (hair keratin) (human); test: quantitative hair-binding test on 5 mg human hair, anti-polyHistidine peroxidase/TMB; value standardized to the surface
[6] = molecular target: human skin (skin keratin) (human); test: quantitative skin-binding test on human keratinocytes in microtiter plates, anti-His antibody/TMB; value standardized to the surface
[7] = molecular target: human hair (hair keratin) (human); test: quantitative hair-binding test; DENATURED KBD-B on 5 mg human hair, anti-polyHistidine peroxidase conjugate, TMB
[8] = molecular target: human hair (hair keratin) (human); test: quantitative hair-binding test; renatured KBD-B on 5 mg human hair, anti-polyHistidine peroxidase conjugate, TMB
[9] = molecular target: human hair (hair keratin) (human); test: quantitative hair-binding test; His-tagged protein on 5 mg human hair, anti-polyHistidine peroxidase conjugate, TMB

Relative absorption loss after 10% strength SDS treatment in % [1] [%] | Relative absorption loss after 10% strength SDS treatment in % [2] [%] | Absorption at 405 nm [3] | Absorption at 405 nm [4] | Absorption at 405 nm [5] | Absorption at 405 nm [6] | Absorption at 405 nm [7] | Absorption at 405 nm [8] | Absorption at 405 nm [9] | Binder
30 | 15 | 3.15 | 0.62 | 0.88 | 3.69 |  |  |  | KBD-D (SEQ ID No.: 168), keratin-binding domain D, H. sapiens plakophilin 1a with N-terminal histidine anchor (protein) MRGSHHHHHHGSACELGTMNHSPLKTALAYECFQDQDNSTLALPSDQKMKTGTSGRQRVQEQVMMTVKRQKSKSSQSSTLSHSNRGSMYDGLADNYNYGTTSRSSYYSKFQAGNGSWGYPIYNGTLKREPDNRRFSSYSQMENWSRHYPRGSCNTTGAGSDICFMQKIKASRSEPDLYCDPRGTLRKGTLGSKGQKTTQNRYSFYSTCSGQKAIKKCPVRPPSCASKQDPVYIPPISCNKDLSFGHSRASSKICSEDIECSGLTIPKAVQYLSSQDEKYQAIGAYYIQHTCFQDESAKQQVYQLGGICKLVDLLRSPNQNVQQAAAGALRNLVFRSTTNKLETRRQNGIREAVSLLRRTGNAEIQKQLTGLLWNLSSTDELKEELIADALPVLADRVIIPFSGWCDGNSNMSREVVDPEVFFNATGCLRNLSSADAGRQTMRNYSGLIDSLMAYVQNCVAASRCDDKSVENCMCVLHNLSYRLDAEVPTRYRQLEYNARNAYTEKSSTGCFSNKSDKMMNNNYDCPLPEEETNPKGSGWLYHSDAIRTYLNLMGKSKKDATLEACAGALQNLTASKGLMSSGMSQLIGLKEKGLPQIARLLQSGNSDVVRSGASLLSNMSRHPLLHRVMGNQVFPEVTRLLTSHTGNTSNSEDILSSACYTVRNLMASQPQLAKQYFSSSMLNNIINLCRSSASPKAAEAARLLLSDMWSSKELQGVLRQQGFDRNMLGTLAGANSLRNFTSRF
86 | 80 | 0.185 |  |  | 0.93 | 0.254 | 1.59 |  | KBD-B (SEQ ID No.: 166), keratin-binding domain B of human desmoplakin expressed from pQE30-KBD-B in E. coli (protein) MRGSHHHHHHGSACELEPHTGLLLLSVQKRSMSFQGIRQPVTVTELVDSGILRPSTVNELESGQISYDEVGERIKDFLQGSSCIAGIYNETTKQKLGIYEAMKIGLVRPGTALELLEAQAATGFIVDPVSNLRLPVEEAYKRGLVGIEFKEKLLSAERAVTGYNDPETGNIISLFQAMNKELIEKGHGIRLLEAQIATGGIIDPKESHRLPVDIAYKRGYFNEELSEILSDPSDDTKGFFDPNTEENLTYLQLKERCIKDEETGLCLLPLKEKKKQVQTSQKNTLRKRRVVIVDPETNKEMSVQEGVDLQPSLIS
 |  |  |  |  |  |  |  | 0.088 | comparison Protein YaaD from B. subtilis (with His tag) (protein, UniProt P37527 1-294, looked up, not shown: small tags and cut ends) MAQTGTERVKRGMAEMQKGGVIMDVINAEQAKIAEEAGAVAVMALERVPADIRAAGGVARMADPTIVEEVMNAVSIPVMAKARIGHIVEARVLEAMGVDYIDESEVLTPADEEFHLNKNEYTVPFVCGCRDLGEATRRIAEGASMLRTKGEPGTGNIVEAVRHMRKVNAQVRKVVAMSEDELMTEAKNLGAPYELLLQIKKDGKLPVVNFAAGGVATPADAALMMQLGADGVFVGSGIFKSDNPAKFAKAIVEATTHFTDYKLIAELSKELGTAMKGIEISNLLPEQRMQERGW
